These results are taken from publication PMC5347741.

The data set is described as follows: immunohistochemistry, nude mouse xenograft. As to conditions: glycan changed form; control: untransfected CAOV3 cells.

B1: CD147: FUT1 transfection (CA-FUT1) (protein)
parent chain: MAAALFVLLGFALLGTHGASGAAGTVFTTVEDLGSKILLTCSLNDSATEVTGHRWLKGGVVLKEDALPGQKTEFKVDSDDQWGEYSCVFLPEPMGTANIQLHGPPRVKAVKSSEHINEGETAMLVCKSESVPPVTDWAWYKITDSEDKALMNGSESRFFVSSSQGRSELHIENLNMEADPGQYRCNGTSSKGSDQAIITLRVRSHLAALWPFLGIVAEVLVLVTIIFIYEKRRKPEDVLDDDDAGSAPLKSSGQHQNDKGKNVRQRNSS
For B1, the expression_or_secretion entry is listed as “increases”.
